1 protein from PMC8092281, “Two Distinct Conformations in 34 FliF Subunits Generate Three Different Symmetries within the Flagellar MS-Ring” (mBio, 2021) can be followed below.

The data set deals with the molecule itself. Kind of data set: cryo-EM structure; single-particle cryoEM of the purified Salmonella MS-FliG ring complex in 25 mM Tris-HCl pH 8.0, 50 mM NaCl, 1 mM EDTA, 0.1% DDM; 8.6 Å (C1) and 6.1 Å (C11) reconstructions.

B1: Salmonella FliF (MS-ring of the purified MS-FliG ring complex) (natural protein, UniProt P15928 1-560, looked up)
chain: MSATASTATQPKPLEWLNRLRANPRIPLIVAGSAAVAIVVAMVLWAKTPDYRTLFSNLSDQDGGAIVAQLTQMNIPYRFANGSGAIEVPADKVHELRLRLAQQGLPKGGAVGFELLDQEKFGISQFSEQVNYQRALEGELARTIETLGPVKSARVHLAMPKPSLFVREQKSPSASVTVTLEPGRALDEGQISAVVHLVSSAVAGLPPGNVTLVDQSGHLLTQSNTSGRDLNDAQLKFANDVESRIQRRIEAILSPIVGNGNVHAQVTAQLDFANKEQTEEHYSPNGDASKATLRSRQLNISEQVGAGYPGGVPGALSNQPAPPNEAPIATPPTNQQNAQNTPQTSTSTNSNSAGPRSTQRNETSNYEVDRTIRHTKMNVGDIERLSVAVVVNYKTLADGKPLPLTADQMKQIEDLTREAMGFSDKRGDTLNVVNSPFSAVDNTGGELPFWQQQSFIDQLLAAGRWLLVLVVAWILWRKAVRPQLTRRVEEAKAAQEQAQVRQETEEAVEVRLSKDEQLQQRRANQRLGAEVMSQRIREMSDNDPRVVALVIRQWMSNDHE
notes: FliF, flagellar M-ring protein, Salmonella; 60-kDa protein with two transmembrane helices and a large periplasmic region; also called St-FliF; copies: 34
On to B1, for which the stoichiometry N (as a rule, a count of units in the complex or per binding partner) worked out at 34.
